Test results taken from the supplement of paper PMC7877785.
± gives the uncertainty stated by the source.

Assay: self-splicing fitness, log relative to wild type (ln ratio); higher = more splicing; Tetrahymena group I intron in knt gene, E. coli kanamycin selection, DiMSum; sequences stand for … in CUCUCU…GGAGGGAAAAGUUAUCAGGCAUGCACCUGGUAGCUAGUCUUUAAACCAAUAGAUUGCAUCGGUUUAAAAGGCAAGACCGUCAAAUUGCGGGAAAGGGGUCAACAGCCGUUCAGUACCAAGUCUCAGGGGAAACUUUGAGAUGGCCUUGCAAAGGGUAUGGUAAUAAGCUGACGGACAUGGUCCUAACCACGCAGCCAAGUCCUAAGUCAACAGAUCUUCUGUUGAUAUGGAUGCAGUUCACAGACUAAAUGUCGGUCGGGGAAGAUGUAUUCUUCUCAUAAGAUAUAGUCGGACCUCUCCUUAAUGGGAGCUAGCGGAUGAAGUGAUGCAACACUGGAGCCGCUGGGAACUAAUUUGUAUGCGAAAGUAUAUUGAUUAGUUUUGGAGUACUCGUGGUCG
How it was run: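 Library with all eight P1ex-region intron nucleotides randomised, intron inside the knt kanamycin-resistance gene on pET-22b(+), in E. coli BL21(DE3). Cells grew overnight at 37°C or 30°C on LB agar with or without 25 μg/mL kanamycin (plus 100 μg/mL carbenicillin, 50 μM IPTG, 0.2% rhamnose), in six replicate transformations. Pooled colonies were amplicon-sequenced on Illumina HiSeq 2500. DiMSum fitness is the error-weighted combination of wild-type-normalised replicate fold changes, kanamycin versus none.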

| Sequence | self-splicing fitness (ln) (30 °C) | self-splicing fitness (ln) (37 °C) |
| --- | --- | --- |
| ACCGAGCAAUAUUACGGUAC | -2.82 ± 0.3 | -2.46 ± 0.33 |
| AGCGAGCAAUAUUACGAAUU |  | -1.41 ± 0.34 |
| CGUUAGCAAUAUUACGGGUC | -3.39 ± 0.41 | -2.01 ± 0.24 |
| CAAUAGCAAUAUUACGUAUA | -3.6 ± 0.22 | -2.58 ± 0.19 |
| UGCCAGCAAUAUUACGAUGC | -3.57 ± 0.17 | -2.35 ± 0.21 |
| ACUAAGCAAUAUUACGCCCA | -0.779 ± 0.11 | -0.482 ± 0.13 |
| GCAUAGCAAUAUUACGGGUG | -2.29 ± 0.13 | -1.82 ± 0.12 |
| GUACAGCAAUAUUACGAGUG | -3.17 ± 0.34 | -1.25 ± 0.18 |
| UAUAAGCAAUAUUACGCAUG | -0.714 ± 0.12 | -0.154 ± 0.13 |
| AACGAGCAAUAUUACGGGGA | -2.72 ± 0.21 | -3.6 ± 0.34 |
| GCGGAGCAAUAUUACGAGAU | -2.21 ± 0.27 | -1.94 ± 0.4 |
| GUUCAGCAAUAUUACGAGAC | -1.99 ± 0.4 | -0.261 ± 0.22 |
| CCUUAGCAAUAUUACGACAG | -1.81 ± 0.11 | -0.864 ± 0.14 |
| UUUUAGCAAUAUUACGGGGG | -3.07 ± 0.41 | -2.25 ± 0.31 |
| UUGAAGCAAUAUUACGUACU | -0.493 ± 0.088 | -0.0917 ± 0.11 |
| CCGGAGCAAUAUUACGAUUA | -3.79 ± 0.37 | -1.17 ± 0.3 |
| UUUUAGCAAUAUUACGGAAU |  | -2.48 ± 0.4 |
| GUCCAGCAAUAUUACGUACG | -1.58 ± 0.07 | -1.14 ± 0.1 |
| UAUCAGCAAUAUUACGGCGU | -0.864 ± 0.087 | -0.578 ± 0.087 |
| AUCAAGCAAUAUUACGCGCG | -1.01 ± 0.094 | -0.0559 ± 0.13 |
| AUGCAGCAAUAUUACGACGU | -0.0321 ± 0.072 | 0.706 ± 0.083 |
| UCUUAGCAAUAUUACGUGGU | -3.39 ± 0.16 | -3.1 ± 0.23 |
| UUUUAGCAAUAUUACGGUAA | -1.94 ± 0.2 | -0.884 ± 0.14 |
| CGUCAGCAAUAUUACGCCGG | -1.69 ± 0.12 | -1.27 ± 0.17 |
| CGAGAGCAAUAUUACGACGG | -0.704 ± 0.16 | -0.616 ± 0.18 |
| AAUUAGCAAUAUUACGAUUG | -2.58 ± 0.2 | -1.14 ± 0.22 |

| Sequence | self-splicing fitness (ln) (30 °C) | self-splicing fitness (ln) (37 °C) |
| --- | --- | --- |
| CGGCAGCAAUAUUACGUAUU | -3.6 ± 0.16 | -3.11 ± 0.18 |
| AUACAGCAAUAUUACGCGCC | -1.06 ± 0.12 | -0.66 ± 0.16 |
| GCUUAGCAAUAUUACGAACU | -0.838 ± 0.08 | 0.0658 ± 0.1 |
| GCAUAGCAAUAUUACGUUAA | -2.44 ± 0.19 | -1.81 ± 0.15 |
| UGUUAGCAAUAUUACGCCUA | -1.17 ± 0.13 | 0.387 ± 0.15 |
| UACGAGCAAUAUUACGGUGA | -3.12 ± 0.18 | -1.21 ± 0.13 |
| UCAGAGCAAUAUUACGCAAA | -1.85 ± 0.23 | -2.03 ± 0.46 |
| CGUAAGCAAUAUUACGGAAC |  | -1.39 ± 0.39 |
| GUUAAGCAAUAUUACGAUAU | -1.02 ± 0.067 | -0.0864 ± 0.074 |
| CCCUAGCAAUAUUACGUCAG | -3.8 ± 0.18 | -2.91 ± 0.18 |
| AUCAAGCAAUAUUACGCAGA | -2.21 ± 0.18 | -2.52 ± 0.23 |
| AGGUAGCAAUAUUACGGGUG | -3.141 ± 0.021 | -1.99 ± 0.036 |
| AAGCAGCAAUAUUACGCUAA | -1.46 ± 0.075 | -1.12 ± 0.086 |
| UAGCAGCAAUAUUACGCAUA | -1.09 ± 0.07 | -0.101 ± 0.079 |
| AUUUAGCAAUAUUACGACGC | -1.8 ± 0.19 | -0.352 ± 0.21 |
| UUGCAGCAAUAUUACGGUGG | -1.79 ± 0.1 | -0.742 ± 0.1 |
| AUGUAGCAAUAUUACGUCUU | -1.62 ± 0.13 | -0.0792 ± 0.13 |
| GAGUAGCAAUAUUACGAGUA | -1.92 ± 0.16 | -1.28 ± 0.17 |
| UGAGAGCAAUAUUACGUCAG |  | -3.02 ± 0.31 |
| AGCCAGCAAUAUUACGUGUU | -3.62 ± 0.11 | -1.56 ± 0.087 |
| AUCUAGCAAUAUUACGGGGA | -1.48 ± 0.073 | -1.03 ± 0.087 |
| CCUAAGCAAUAUUACGAGCU | -2.2 ± 0.33 | -1.93 ± 0.27 |
| ACCCAGCAAUAUUACGGGCU | -1.68 ± 0.07 | -0.729 ± 0.072 |
| CUUAAGCAAUAUUACGUCCA | -2.93 ± 0.48 | -2.34 ± 0.46 |
| UUUAAGCAAUAUUACGAGAC | -2.33 ± 0.48 | -2.63 ± 0.33 |
| CACUAGCAAUAUUACGUCGU | -3.39 ± 0.11 | -1.76 ± 0.094 |

| Sequence | self-splicing fitness (ln) (30 °C) | self-splicing fitness (ln) (37 °C) |
| --- | --- | --- |
| CGCGAGCAAUAUUACGGCUG | -0.795 ± 0.094 | -0.637 ± 0.13 |
| UGCAAGCAAUAUUACGGUGU | -3.9 ± 0.23 | -2.92 ± 0.24 |
| UCAAAGCAAUAUUACGCAUC | -3.83 ± 0.19 | -3.11 ± 0.31 |
| GGUCAGCAAUAUUACGUCGA | -0.64 ± 0.098 | -0.54 ± 0.1 |
| CGGCAGCAAUAUUACGAUCG | -2.76 ± 0.18 | -1.97 ± 0.19 |
| UCUUAGCAAUAUUACGUAGG | -1.26 ± 0.11 | 0.0819 ± 0.16 |
| GGGUAGCAAUAUUACGCUUA | -0.435 ± 0.15 | -0.957 ± 0.13 |
| CAAAAGCAAUAUUACGAAGC | -4.63 ± 0.36 | -2.27 ± 0.21 |
| GUGAAGCAAUAUUACGGAAU | -1.06 ± 0.18 | -0.308 ± 0.18 |
| AGGCAGCAAUAUUACGAGUC | -2.29 ± 0.14 | -2.34 ± 0.2 |
| ACAUAGCAAUAUUACGCGAC | -3.68 ± 0.42 | -0.813 ± 0.18 |
| UGACAGCAAUAUUACGAUCA | -0.329 ± 0.068 | 0.116 ± 0.089 |
| CCUUAGCAAUAUUACGACUG | -2.26 ± 0.12 | -0.308 ± 0.096 |
| UGUAAGCAAUAUUACGUUGG | -2.14 ± 0.14 | -1.46 ± 0.18 |
| UACUAGCAAUAUUACGAAGG | -3.46 ± 0.29 | -1.04 ± 0.34 |
| CUGGAGCAAUAUUACGCGCU | -3.54 ± 0.47 |  |
| UGAUAGCAAUAUUACGUACU | 0.125 ± 0.1 | -0.524 ± 0.11 |
| ACCCAGCAAUAUUACGCCAA | -2.43 ± 0.15 | -2.03 ± 0.15 |
| CUCUAGCAAUAUUACGCUGG | -3.13 ± 0.23 | -1.51 ± 0.32 |
| GCCGAGCAAUAUUACGGUUC | -4.42 ± 0.3 | -1.79 ± 0.26 |
| GUUAAGCAAUAUUACGACAA | -0.704 ± 0.29 | -1.12 ± 0.26 |
| AACAAGCAAUAUUACGUCUG | -1.22 ± 0.058 | -0.709 ± 0.076 |
| CUCAAGCAAUAUUACGUUUU | -3.35 ± 0.14 | -2.34 ± 0.18 |
| CUAGAGCAAUAUUACGACUG | 0.0552 ± 0.11 | -0.585 ± 0.14 |
